Results as given in US20150165065A1 (AVIDBIOTICS, published 2015).
Numbering of substitutions follows the chain as printed.

T1: biotinylated human NKG2D (human, UniProt P26718 78-216, limits assumed, biotinylated (site not stated))
T1 construct: Surface-coated in biolayer interferometry (Octet); also called recombinant biotinylated NKG2D
T1 sequence (looked up): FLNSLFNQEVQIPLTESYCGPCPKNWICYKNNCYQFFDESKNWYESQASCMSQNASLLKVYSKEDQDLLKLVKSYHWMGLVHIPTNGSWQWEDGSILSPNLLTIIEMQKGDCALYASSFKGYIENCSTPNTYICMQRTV

T2: human NKG2D-Fc (human, UniProt P26718 78-216, limits assumed)
T2 construct: construct not described; also called human NKG2D-Fc reagent; not shown: Fc part
T2 sequence (looked up): T1 sequence (looked up)

T3: mouse NKG2D-Fc (mouse, UniProt O54709 94-232, limits assumed)
T3 construct: Construct not described; also called murine NKG2D-Fc; murine NKG2D; not shown: Fc part
T3 sequence (looked up): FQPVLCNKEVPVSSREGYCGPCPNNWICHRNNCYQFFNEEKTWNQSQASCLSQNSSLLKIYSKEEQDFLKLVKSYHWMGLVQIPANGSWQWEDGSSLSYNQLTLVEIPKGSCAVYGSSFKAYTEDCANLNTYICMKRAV

T4: FGFR3 (coated on wells) (UniProt P22607 23-375, limits assumed)
T4 construct: Coated at 2 ug/ml on Maxisorp plates; also called Fibroblast Growth Factor Receptor 3
T4 sequence (looked up): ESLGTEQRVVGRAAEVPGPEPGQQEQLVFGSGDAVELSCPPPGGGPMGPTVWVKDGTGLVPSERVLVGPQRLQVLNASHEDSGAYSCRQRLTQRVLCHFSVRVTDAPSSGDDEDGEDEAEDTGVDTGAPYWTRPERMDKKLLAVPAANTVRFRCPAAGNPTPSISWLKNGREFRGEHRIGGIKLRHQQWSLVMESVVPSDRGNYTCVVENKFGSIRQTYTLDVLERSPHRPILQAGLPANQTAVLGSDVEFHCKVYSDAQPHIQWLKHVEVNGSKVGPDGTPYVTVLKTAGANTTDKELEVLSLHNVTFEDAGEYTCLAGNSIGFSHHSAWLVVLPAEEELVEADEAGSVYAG

B1: M13 phage pKK95 displaying MICA α3 domain with loop 1 insert 3.4 (designed binder, not shown: large carriers)
chain: TVPPMVNVTRSARGDSDHRVTCRASGFYPWNITLSWRQDGVSLSHDTQQWGDVLPDGNGTYQTWVATRICQGEEQRFTCYMEHSGNHSTHPVPSGK
B2: M13 phage pKK100 displaying MICA α3 domain with loop 1 insert 3.2sp (designed binder, not shown: large carriers)
chain: TVPPMVNVTSGGSGGGSTSRGDHPRTQSGGSGGGVTCRASGFYPWNITLSWRQDGVSLSHDTQQWGDVLPDGNGTYQTWVATRICQGEEQRFTCYMEHSGNHSTHPVPSGK
B3: M13 phage pKK112 displaying MICA α3 domain with tight loop 1 insert T-AMY (loop 1 from tendamistat) (designed binder, not shown: large carriers)
chain: TVPPMVNYQSWRYSQCRASGFYPWNITLSWRQDGVSLSHDTQQWGDVLPDGNGTYQTWVATRICQGEEQRFTCYMEHSGNHSTHPVPSGK
B4: α1-α2 variant 15 (designed binder)
chain: EPHSLRYNLTVLSWDGSVQSGFLTEVHLDGQPFLRCDRQKCRAKPQGQWAEDVLGNKTWDRETRDLTGWGKDLRMTLAHIKDQKEGLHSLQEIRVCEIHEDNSTRSSQHFYYDGELFLSQNLETNEWTMPQSSRAQTLAMNVRNFLKEDAMETDTHYHAMRADCLQELRRYLKSGVVLRRTVPPMVQVTRSEASGGSGDRVTITCRASQDVSTAVAWYQQKPGKAPKLLIYSASFLYSGVPSRFSGSGSGTDFTLTISSLQPEDFATYYCQQSYTTPPTFGQGTKVEIKGGSSRSSSSGGGGSGGGGEVQLVESGGGLVQPGGSLRLSCAASGFTFTSTGISWVRQAPGKGLEWVGRIYPTNGSTNYADSVKGRFTISADTSKNTAYLQMNSLRAEDTAVYYCARTYGIYDLYVDYTEYVMDYWGQGTLVTVSSGGSSRSSSSGGGGSGGGGDIQMTQSPSSLSASGGSGQITVTCRASGFYPWNITLSWRQDGVSLSHDTQQWGDVLPDGQGTYQTWVATRISQGEEQRFTCYMEHSGQHSTHPVPSGKGSHHHHHH
notes: His-tagged protein from insect cells, modified α1-α2 domain with an attached polypeptide
B5: α1-α2 variant 16 (designed binder)
chain: B4 chain with N125L
notes: as for B4
B6: α1-α2 variant 17 (designed binder)
chain: B4 chain with G68L, N125L
notes: as for B4
B7: α1-α2 variant 18 (designed binder)
chain: B4 chain with S20P, G68L, N125L
notes: as for B4
B8: soluble MICA generated from pKK35 (loop 3 insert His10sp) (designed binder)
chain: EPHSLRYNLTVLSWDGSVQSGFLTEVHLDGQPFLRCDRQKCRAKPQGQWAEDVLGNKTWDRETRDLTGNGKDLRMTLAHIKDQKEGLHSLQEIRVCEIHEDNSTRSSQHFYYDGELFLSQNLETKEWTMPQSSRAQTLAMNVRNFLKEDAMKTKTHYHAMHADCLQELRRYLKSGVVLRRTVPPMVNVTRSEASEGNITVTCRASGFYPWNITLSWRQDGVSLSHDTQQWGDVLPDGNGTYQTWVATRISGGSGGGSHHHHHHHHHHSGGSGGGCYMEHSGNHSTHPVPSGK
B9: M13 phage pKK109 displaying MICA α3 domain with tight loop 1 insert T-3.3 (designed binder, not shown: large carriers)
chain: TVPPMVNRVPRGDSDLTCRASGFYPWNITLSWRQDGVSLSHDTQQWGDVLPDGNGTYQTWVATRICQGEEQRFTCYMEHSGNHSTHPVPSGK
B10: MICA-α3-iFv.1 (designed binder)
chain: EPHSLRYNLTVLSWDGSVQSGFLTEVHLDGQPFLRCDRQKCRAKPQGQWAEDVLGNKTWDRETRDLTGNGKDLRMTLAHIKDQKEGLHSLQEIRVCEIHEDNSTRSSQHFYYDGELFLSQNLETKEWTMPQSSRAQTLAMNVRNFLKEDAMKTKTHYHAMHADCLQELRRYLKSGVVLRRTVPPMVQVTRSEASGDRVTITCRASQDVSTAVAWYQQKPGKAPKLLIYSASFLYSGVPSRFSGSGSGTDFTLTISSLQPEDFATYYCQQSYTTPPTFGQGTKVEIKGGSSRSSSSGGGGSGGGGEVQLVESGGGLVQPGGSLRLSCAASGFTFTSTGISWVRQAPGKGLEWVGRIYPTNGSTNYADSVKGRFTISADTSKNTAYLQMNSLRAEDTAVYYCARTYGIYDLYVDYTEYVMDYWGQGTLVTVSSGGSSRSSSSGGGGSGGGGDIQMTQSPSSLSASGQITVTCRASGFYPWNITLSWRQDGVSLSHDTQQWGDVLPDGQGTYQTWVATRISQGEEQRFTCYMEHSGQHSTHPVPSGKGSHHHHHH

Tests used:
FGFR3 (coated on wells) [1] = target: FGFR3 (coated on wells) (UniProt P22607); experiment: ELISA on FGFR3-coated wells after 1 hour at 60 C and 1 hour back at room temperature [panel A]
integrin αVβ3 [2] = target: T5, integrin αVβ3 (UniProt P06756 31-992; P05106 27-718); experiment: phage ELISA, coated integrin, anti-M13-HRP
T5 construct: Coated on the ELISA plate

integrin αVβ5 [3] = target: T6, integrin αVβ5 (UniProt P06756 31-992; P18084 24-719); experiment: phage ELISA, coated integrin, anti-M13-HRP
T6 construct: Coated on the ELISA plate

biotinylated human NKG2D [4] = target: T1, biotinylated human NKG2D; experiment: BLI (Octet), coated biotinylated human NKG2D, 100 nM analyte
biotinylated human NKG2D [5] = target: T1, biotinylated human NKG2D; experiment: BLI (Octet), Kd = kOFF/kON
human NKG2D-Fc [6] = target: T2, human NKG2D-Fc; experiment: competition ELISA, 2 nM human NKG2D-Fc on coated WT sMICA
From the text: (§1) As for the NKG2D ligands (NKG2DLs) in the above example, we attached polypeptides directly to each of these 4 modified α1-α2 NKG2DLs using a linker peptide. The 4 His-tagged proteins (SEQ ID NOs.: 131-134) were expressed in insect cells and purified to characterize their NKG2D binding affinities and kinetic binding parameters. Using a competitive binding ELISA, we determined the relative NKG2D binding affinities of the 4 modified α1-α2 variants.

human NKG2D-Fc [7] = target: T2, human NKG2D-Fc; experiment: competition ELISA, human NKG2D-Fc on coated WT sMICA
From the text: as §1

[8] = target: NKG2D receptor on NKL effector cells (human) (UniProt P26718); experiment: cell-based or functional assay
biotinylated human NKG2D [9] = target: T1, biotinylated human NKG2D; experiment: BLI (Octet)
mouse NKG2D-Fc = target: T3, mouse NKG2D-Fc; experiment: competition ELISA: titrated soluble protein inhibits binding of mouse NKG2D-Fc to plate-coated MICA [panel B]
From the text: as §1

integrin αVβ3 [10] = target: T5, integrin αVβ3; experiment: ELISA, coated integrin, anti-MICA-HRP
integrin αVβ5 [11] = target: T6, integrin αVβ5; experiment: ELISA, coated integrin, anti-MICA-HRP
FGFR3 (coated on wells) [12] = target: T4, FGFR3 (coated on wells); experiment: ELISA on FGFR3-coated wells (2 ug/ml), bound sMICA detected with NKG2D-Fc and anti-Fc-HRP
Method: The purified MICA-α3-iFv proteins were tested in a FGFR3-binding ELISA to confirm simultaneous binding to the FGFR3 target and the NKG2D receptor. FGFR3 in phosphate buffered saline (PBS) was coated onto Maxisorp plates at 2 ug/ml concentration. Each MICA protein was titrated, allowed to bind FGFR3 for 1 hour, and washed to remove unbound sMICA protein. The bound MICA-α3-iFv protein was detected using NKG2D-Fc and anti-Fc-HRP conjugate.

T5 sequence (P06756 31-992, chain 1 of 2): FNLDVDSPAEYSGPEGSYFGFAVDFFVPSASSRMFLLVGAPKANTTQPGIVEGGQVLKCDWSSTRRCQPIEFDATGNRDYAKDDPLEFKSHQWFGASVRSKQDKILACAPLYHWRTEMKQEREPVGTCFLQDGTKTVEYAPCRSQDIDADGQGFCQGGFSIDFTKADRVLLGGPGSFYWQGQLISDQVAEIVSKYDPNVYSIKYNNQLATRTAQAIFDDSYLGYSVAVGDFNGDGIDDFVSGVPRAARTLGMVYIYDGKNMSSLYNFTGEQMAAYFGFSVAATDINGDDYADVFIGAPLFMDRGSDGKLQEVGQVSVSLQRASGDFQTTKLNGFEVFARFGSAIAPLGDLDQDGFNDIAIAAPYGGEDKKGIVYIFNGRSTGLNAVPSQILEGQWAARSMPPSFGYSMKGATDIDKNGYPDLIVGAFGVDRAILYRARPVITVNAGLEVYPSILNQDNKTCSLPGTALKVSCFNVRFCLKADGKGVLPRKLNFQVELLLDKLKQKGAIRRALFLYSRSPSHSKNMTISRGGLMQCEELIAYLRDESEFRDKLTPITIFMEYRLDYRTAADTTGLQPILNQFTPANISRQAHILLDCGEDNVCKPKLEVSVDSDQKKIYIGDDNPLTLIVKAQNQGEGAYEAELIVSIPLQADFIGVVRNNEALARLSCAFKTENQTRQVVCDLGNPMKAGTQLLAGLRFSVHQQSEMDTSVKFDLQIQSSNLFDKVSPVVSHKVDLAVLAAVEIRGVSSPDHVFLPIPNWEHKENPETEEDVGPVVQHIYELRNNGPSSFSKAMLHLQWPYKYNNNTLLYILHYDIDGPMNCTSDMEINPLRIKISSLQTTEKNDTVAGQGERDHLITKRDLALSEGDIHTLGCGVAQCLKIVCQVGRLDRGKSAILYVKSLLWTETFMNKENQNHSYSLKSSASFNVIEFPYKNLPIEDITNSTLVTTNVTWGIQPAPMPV
T5 sequence (P05106 27-718, chain 2 of 2): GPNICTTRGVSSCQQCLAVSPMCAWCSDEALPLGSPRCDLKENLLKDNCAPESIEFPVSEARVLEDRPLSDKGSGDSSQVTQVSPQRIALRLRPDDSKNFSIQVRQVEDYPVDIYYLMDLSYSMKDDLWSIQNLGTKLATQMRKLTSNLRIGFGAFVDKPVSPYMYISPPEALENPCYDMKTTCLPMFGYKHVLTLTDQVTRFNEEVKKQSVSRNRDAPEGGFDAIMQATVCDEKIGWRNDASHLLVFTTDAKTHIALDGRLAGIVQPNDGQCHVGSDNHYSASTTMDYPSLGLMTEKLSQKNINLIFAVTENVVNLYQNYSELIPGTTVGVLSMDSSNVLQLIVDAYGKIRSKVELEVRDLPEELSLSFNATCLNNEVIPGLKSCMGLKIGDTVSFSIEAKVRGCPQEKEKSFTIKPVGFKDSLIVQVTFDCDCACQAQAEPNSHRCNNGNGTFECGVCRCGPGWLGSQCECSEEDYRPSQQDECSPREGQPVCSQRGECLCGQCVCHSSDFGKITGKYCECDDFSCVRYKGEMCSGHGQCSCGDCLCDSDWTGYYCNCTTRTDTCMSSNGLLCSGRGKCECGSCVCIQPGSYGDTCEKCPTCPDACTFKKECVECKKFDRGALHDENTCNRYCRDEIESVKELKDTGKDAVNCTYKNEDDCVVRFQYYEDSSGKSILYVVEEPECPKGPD
T6 sequence (P06756 31-992, chain 1 of 2): as the sequence (P06756 31-992, chain 1 of 2) above
T6 sequence (P18084 24-719, chain 2 of 2): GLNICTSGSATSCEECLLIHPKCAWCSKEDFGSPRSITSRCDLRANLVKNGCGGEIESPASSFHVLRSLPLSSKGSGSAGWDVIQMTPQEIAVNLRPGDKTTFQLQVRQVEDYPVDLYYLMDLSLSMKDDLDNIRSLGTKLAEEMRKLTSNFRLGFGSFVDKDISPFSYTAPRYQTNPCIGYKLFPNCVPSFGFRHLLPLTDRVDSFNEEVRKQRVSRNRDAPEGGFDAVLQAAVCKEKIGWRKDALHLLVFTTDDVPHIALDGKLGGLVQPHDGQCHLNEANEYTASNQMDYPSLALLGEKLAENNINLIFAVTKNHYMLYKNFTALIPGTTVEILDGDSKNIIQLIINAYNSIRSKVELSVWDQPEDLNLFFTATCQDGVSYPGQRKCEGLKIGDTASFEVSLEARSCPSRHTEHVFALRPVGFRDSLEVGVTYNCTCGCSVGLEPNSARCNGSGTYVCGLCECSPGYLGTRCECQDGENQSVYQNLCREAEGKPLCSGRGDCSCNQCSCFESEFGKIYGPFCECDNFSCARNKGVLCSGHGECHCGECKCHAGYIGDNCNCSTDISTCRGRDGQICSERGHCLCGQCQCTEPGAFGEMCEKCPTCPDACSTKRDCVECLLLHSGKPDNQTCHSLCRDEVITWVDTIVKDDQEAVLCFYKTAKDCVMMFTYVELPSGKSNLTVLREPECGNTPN

Row | Molecule | αvβ3 signal (integrin αVβ3 [2]) [OD] | αvβ5 signal (integrin αVβ5 [3]) [OD] | koff (biotinylated human NKG2D [4]) [s⁻¹] | kon (biotinylated human NKG2D [4]) [M⁻¹ s⁻¹] | Kd (biotinylated human NKG2D [5]) [nM] | IC50 (human NKG2D-Fc [6]) [nM] | fold better binding than WT NKG2DL (IC50) (human NKG2D-Fc [7]) [fold] | further results
1 | MICA-scFv (traditional scFv constructed from MAbR3 fused to the C-terminus of soluble MICA) (from UniProt Q29983 24-307) (designed binder) | – | – | – | – | – | – | – | EC50 (read off the curve) (FGFR3 (coated on wells) [1]): 5 nM
2 | B1 | 0.345 | 0.232 | – | – | – | – | – | –
3 | B2 | 0.201 | 0.186 | – | – | – | – | – | –
4 | B3 | 0.46 | 0.515 | – | – | – | – | – | –
5 | B4 | – | – | 0.00011 | 70000 | 1.5 | 1.7 | 11 | –
6 | B5 | – | – | 9e-05 | 200000 | 0.5 | 0.7 | 27 | NK-mediated lysis of FGFR3-expressing P815 cells (calcein release) [8]: 15 fold; fold affinity increase relative to WT α1-α2 (biotinylated human NKG2D [9]): ~30 fold; fold reduction in the off-rate relative to WT (biotinylated human NKG2D [9]): 18 fold
7 | B6 | – | – | 7e-05 | 200000 | 0.4 | 0.6 | 32 | IC50 (read off the curve) (mouse NKG2D-Fc): ~1 nM; NK-mediated lysis of FGFR3-expressing P815 cells (calcein release) [8]: 15 fold; fold affinity increase relative to WT α1-α2 (biotinylated human NKG2D [9]): ~30 fold; fold reduction in the off-rate relative to WT (biotinylated human NKG2D [9]): 18 fold
8 | B7 | – | – | 9e-05 | 230000 | 0.4 | 0.5 | 38 | IC50 (read off the curve) (mouse NKG2D-Fc): ~1 nM; NK-mediated lysis of FGFR3-expressing P815 cells (calcein release) [8]: 15 fold; fold affinity increase relative to WT α1-α2 (biotinylated human NKG2D [9]): ~30 fold; fold reduction in the off-rate relative to WT (biotinylated human NKG2D [9]): 18 fold
9 | B8 | – | – | – | – | – | – | – | αvβ3 signal (integrin αVβ3 [10]): 0.419 OD; αvβ3 signal/ng (signal/ng MICA) (integrin αVβ3 [10]): 2.46; αvβ5 signal (integrin αVβ5 [11]): 0.392 OD; αvβ5 signal/ng (signal/ng MICA) (integrin αVβ5 [11]): 2.31
10 | B9 | 0.23 | 0.167 | – | – | – | – | – | –
11 | B10 | – | – | – | – | – | – | – | EC50 (read off the curve) (FGFR3 (coated on wells) [12]): ~1 nM
